Data published in the Human Domainome abundance scans (Beltran et al. 2025).

B1: Retinoic acid receptor RXR-alpha, residues 132 to 208; numbered along this chain, P19793 (parent)
chain: KHICAICGDRSSGKHYGVYSCEGCKGFFKRTVRKDLTYTCRDNKDCLIDKRQRNRCQYCRYQKCLAMGMKREAVQEE

Variants of: B1
Assay: abundance fitness (aPCA) (normalised: wild type 0, dead -1); higher = more abundant; growth selection in yeast, the domain comes from the species named
Conditions: Homo sapiens

Abundance fitness of substitutions, site by site:
H15: E -0.065, V -0.098, S -0.196, F -0.064, R -0.039, T -0.24, Q -0.007, Y -0.05, M -0.234, G -0.056, I -0.181, W -0.078, L -0.138, A -0.13, C -0.081, P -0.034, K -0.138, D -0.08
S11: L -0.142, V -0.179, H -0.019, I -0.113, N -0.084, Y -0.096, W -0.066, M -0.111, G -0.116, P 0.072, Q -0.101, T -0.089, A -0.054, E -0.072, R -0.162, C -0.015, F -0.087, D -0.014
Y19: L -0.04, I -0.107, C -0.116, A -0.036, S -0.067, P 0.006, D -0.041, T -0.073, K -0.032, H -0.068, G -0.207, E -0.047, R -0.097, M -0.015
E22: Q -0.094, K 0.015, W -0.007, V -0.053, N -0.079, D -0.062, C -0.043, F -0.097, M -0.136, R -0.002, I -0.011, A -0.048, S -0.063, P -0.037, Y -0.135, H -0.104, G 0.031
A5: V -0.054, P -0.074, Q 0.036, M 0.036, R 0.044, T 0.045, S 0.02, N -0.022, W 0.03
C24: L -1.01, P -0.904, S -1, R -0.958, N -1.18, I -0.987, D -0.049, E -0.559, H -0.971, V -0.917, G -0.945, K -1.15, Q -0.891, A -0.875, F -0.889, M -1.18
G23: E -0.039, M -0.305, T -0.256, D 0.049, A -0.082, P -0.126, R -0.037, I -0.407, H -0.089, F -0.424, V -0.144, C -0.258, N -0.269, L -0.407, W -0.015, Y -0.312, K -0.128, Q -0.157, S -0.288
C7: W -1.22, K -1.29, M -0.867, L -1.23, A -0.919, N -0.728, Q -0.988, I -1.24, F -1.19, G -0.921, V -1.11, S -0.944, Y -0.917, H -0.942, D -0.357, E -0.769, P -0.961, T -0.981
R10: K -0.025, C -0.053, T -0.024, A -0.139, Y -0.028, W -0.044, D -0.047, L -0.131, F -0.064, V -0.199, M -0.099, I -0.021, G -0.072, E -0.059, H -0.051, S -0.046, N -0.024
Y16: M -0.001, A 0.011, V 0.004, L -0.035, S 0.014, K -0.092, R -0.055, Q 0.063, W -0.015, G 0.015, N -0.089, T -0.04, P -0.082, H -0.031, D 0.046, C -0.013, E 0.078, F 0.06
V18: D -0.205, T -0.357, S -0.328, A -0.133, M -0.147, P -0.18, E 0.01, C -0.078, G 0.013, L -0.141, Y -0.262, H -0.356, R -0.227, I -0.142, N -0.574, F -0.144
S20: W 0.045, Q 0.012, H 0.015, D -0.276, L 0.05, A 0.047, P -0.09, V 0.035, R -0.571, N 0.031, Y -0.025, C 0.049, M -0.027, G 0.065, E -0.202, I 0.019
S12: Q 0.104, I -0.196, E 0.101, L 0.019, P 0.062, N 0.091, H -0.131, G 0.072, W -0.072, A 0.044, R 0.123, K 0.137, D 0.001, F -0.112, T 0.114, C -0.657, V 0.018
I6: C 0.008, A -0.145, M -0.038, K -0.881, S -0.438, R -0.687, N -0.439, T -0.064, L -0.124, D -0.729, H -0.731, Q -0.909, Y -0.881, G -0.386
D9: L -0.708, A -0.091, E 0.098, N -0.05, T -0.089, I -0.455, V -0.424, H -0.214, M -0.354, K 0.03, P -0.662, F -0.321, G -0.166, S -0.137, C -0.898, R -0.243, Q 0.033, W -0.141
G13: S -0.121, N 0.048, R -0.024, V -0.067, Q -0.009, Y 0.017, F -0.114, H 0.025, W -0.659, P -0.118, M -0.042, C -0.707, T -0.005, L -0.082, D 0.019, I -0.367, K 0.084, E 0.059, A 0.02
G8: Y -0.044, Q 0.043, T 0.016, R -0.125, P -0.227, W -0.1, L -0.179, F 0.006, N -0.017, A -0.027, D -0.04, S -0.041, C -0.027, V -0.228, H -0.062, M -0.07, E 0.005, K -0.053
K14: R -0.115, L -0.094, G -0.004, W -0.013, N -0.028, C -0.027, I -0.112, V -0.057, A -0.027, M 0.001, F 0.017, E -0.034, D 0.018, S -0.04, T -0.039, H -0.414, Q 0, Y -0.218, P -0.004
C21: N -0.803, A -1.07, T -1.05, L -0.986, Y -0.676, H -0.933, W -1.03, M -0.827, E -0.845, Q -1.02, P -0.9, G -0.956, I -1.12, F -0.962, S -0.98, D -0.413
G17: H -0.053, S -0.029, R -0.095, F -0.088, N 0.056, I -0.275, M 0.025, W -0.163, C -0.002, Y -0.1, A -0.106, L -0.107, Q -0.089, D 0.031, K -0.085, P -0.277, E 0.005
